# Measurements from PMC3713010, “Sox2 Transcriptionally Regulates Pqbp1, an Intellectual Disability-Microcephaly Causative Gene, in Neural Stem Progenitor Cells”.
# T1: Brn2 DNA-binding domain (BD-Brn2) (Mus musculus (B6), UniProt P31360 336-435)
# T1 sequence: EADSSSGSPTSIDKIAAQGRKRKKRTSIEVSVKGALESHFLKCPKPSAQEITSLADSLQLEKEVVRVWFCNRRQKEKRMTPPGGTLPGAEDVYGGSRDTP
# T2: Oct6 DNA-binding domain (BD-Oct6) (Mus musculus (B6), UniProt P21952 317-416)
# T2 sequence: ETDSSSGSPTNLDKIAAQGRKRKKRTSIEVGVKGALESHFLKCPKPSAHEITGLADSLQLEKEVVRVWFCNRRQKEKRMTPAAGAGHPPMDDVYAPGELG
# B1: 4b (dsDNA)
# DNA 1: GGGGGAGTCTCTGTAAAATTAACAAACAAGTTACCCCCC
# DNA 2: GGGGGGTAACTTGTTTGTTAATTTTACAGAGACTCCCCC
# B2: 126 (dsDNA)
# DNA 1: GGGGGAATGTTGTCATAATTGAAAAAGACAAAGCACTAATCCCCC
# DNA 2: GGGGGATTAGTGCTTTGTCTTTTTCAATTATGACAACATTCCCCC
# B3: 4a (dsDNA)
# DNA 1: GGGGGGACTTAATTGTGAGTCTCTGTAAAATTAACAAACAAGTTACCCCCC
# DNA 2: GGGGGGTAACTTGTTTGTTAATTTTACAGAGACTCACAATTAAGTCCCCCC
# B4: 120 (dsDNA)
# DNA 1: GGGGGTCCACACTCTATAATCTCACATTGTTTGGCACCCCCCC
# DNA 2: GGGGGGGTGCCAAACAATGTGAGATTATAGAGTGTGGACCCCC
# B5: 122 (dsDNA)
# DNA 1: GGGGGGAAAAGGATTTGTACTTAAATAAGCACCTGGCCCCCC
# DNA 2: GGGGGGCCAGGTGCTTATTTAAGTACAAATCCTTTTCCCCCC
# B6: 125 (dsDNA)
# DNA 1: GGGGGGGGATGCAATTGTCAGTCACCTTTCTTGAGCCTGTGGGACCCCC
# DNA 2: GGGGGTCCCACAGGCTCAAGAAAGGTGACTGACAATTGCATCCCCCCCC
# B7: 121 (dsDNA)
# DNA 1: GGGGGGTGCTCAATTTGTGTTAGCTATTACTAGCAAGTCATTAACTCACCCCCC
# DNA 2: GGGGGGTGAGTTAATGACTTGCTAGTAATAGCTAACACAAATTGAGCACCCCCC
# B8: 8 (dsDNA)
# DNA 1: GGGGGGCTGTAACAGAATACCTGACAAAAGCAACTTCCCCC
# DNA 2: GGGGGAAGTTGCTTTTGTCAGGTATTCTGTTACAGCCCCCC
# B9: 123 (dsDNA)
# DNA 1: GGGGGAGTGCTATTTTGTCGAGAAATTGTAGAAGACACCCCC
# DNA 2: GGGGGTGTCTTCTACAATTTCTCGACAAAATAGCACTCCCCC
# B10: 13 (dsDNA)
# DNA 1: GGGGGTCTCCTGCTTTGTAGTCACAGAGTAGTCAAGAAGGGCTCCCCC
# DNA 2: GGGGGAGCCCTTCTTGACTACTCTGTGACTACAAAGCAGGAGACCCCC
# B11: 124 (dsDNA)
# DNA 1: GGGGGCTTATGCTTCTATTCTACACAATTCCACAACCCCCC
# DNA 2: GGGGGGTTGTGGAATTGTGTAGAATAGAAGCATAAGCCCCC
# B12: 12 (dsDNA)
# DNA 1: GGGGGAGTATGAGTTTGTATATGTTGATTAACCAAACACTCCCCC
# DNA 2: GGGGGAGTGTTTGGTTAATCAACATATACAAACTCATACTCCCCC
# B13: 127 (dsDNA)
# DNA 1: GGGGGTTTTGTTTTTTGTTTAAAGCAATAACATATTCAGCCCCC
# DNA 2: GGGGGCTGAATATGTTATTGCTTTAAACAAAAAACAAAACCCCC
# B14: 7 (dsDNA)
# DNA 1: GGGGGCAACCACCTCTAAATGCCTACAAATTGTATGGTCATCCCCC
# DNA 2: GGGGGATGACCATACAATTTGTAGGCATTTAGAGGTGGTTGCCCCC
# B15: 119 (dsDNA)
# DNA 1: GGGGGCCGATCGCTTTGTTCTACATTTTATGTTCTATCCCCC
# DNA 2: GGGGGATAGAACATAAAATGTAGAACAAAGCGATCGGCCCCC
# B16: 14 (dsDNA)
# DNA 1: GGGGGGTCAGGATTTTGTGTGTGGATTAACTGTATCATCCCCC
# DNA 2: GGGGGATGATACAGTTAATCCACACACAAAATCCTGACCCCCC
# B17: 128 (dsDNA)
# DNA 1: GGGGGAATATCAGTGTAATGATTAACAGACAATGGCAGAGGCCCCC
# DNA 2: GGGGGCCTCTGCCATTGTCTGTTAATCATTACACTGATATTCCCCC
# B18: 5 (dsDNA)
# DNA 1: GGGGGTGTAGGTCATTGTGGCCTCAAATTTGGTAATGTAACCCCC
# DNA 2: GGGGGTTACATTACCAAATTTGAGGCCACAATGACCTACACCCCC
# B19: 3 (dsDNA)
# DNA 1: GGGGGACCTATACTTTGTTTTTATTGCCTAGTAATCCCCC
# DNA 2: GGGGGATTACTAGGCAATAAAAACAAAGTATAGGTCCCCC
# B20: 4c (dsDNA)
# DNA 1: GGGGGTAAAATTAACAAACAAGTTACATTATCTAATATACACCCCC
# DNA 2: GGGGGTGTATATTAGATAATGTAACTTGTTTGTTAATTTTACCCCC
# B21: 6 (dsDNA)
# DNA 1: GGGGGAGGACTTAATTGTTCGCATTTCTGTATTCTGCCCCC
# DNA 2: GGGGGCAGAATACAGAAATGCGAACAATTAAGTCCTCCCCC
# B22: 15 (dsDNA)
# DNA 1: GGGGGAGATCTTTACAAATTTCTATATTAGAGTTTTTTGTCCCCC
# DNA 2: GGGGGACAAAAAACTCTAATATAGAAATTTGTAAAGATCTCCCCC
# Biological target: T1, Brn2 DNA-binding domain (BD-Brn2)
# Assay: EMSA; 10% glycerol, 20 mM HEPES pH 7.8, 45 mM KCl, 10 mM NaCl, 1 mM EDTA, 1 mM DTT, 0.2 ug/uL BSA, 0.1% NP-40, 50 ng poly-dIdC; 20 ng each GST protein; room temperature 30 min (heterodimers 4 C); 6% PAGE 0.25x TBE
# Conditions: protein: recombinant; tags: GST (N-terminal, pGEX-6P-1); label: 32P-dCTP fill-in of the 5' (dG)5 overhangs of both strands (Methods; control probes are given with GGG)
# In short: (§1)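 GST-tagged transcription factor DNA-binding domains were made in E. coli BL21 and purified on glutathione-sepharose. They were tested against candidate cis-element oligonucleotides, annealed and labelled with 32P-dCTP. Each protein (20 ng) was mixed with 40,000–50,000 cpm probe and 50 ng poly-dIdC in HEPES/KCl glycerol buffer with BSA and detergent for 30 min at room temperature. Samples were resolved on 6% polyacrylamide in 0.25×TBE at 4°C. DNA binding was scored as band radioactivity in the expected shift region, measured on a BAS4000 imager.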
row,Binder,binding result
1,B1,binds
2,B2,binds
3,B3,binds
4,B4,no binding
5,B5,binds
6,B6,binds
7,B7,binds
8,B8,no binding
9,B9,no binding
10,B10,no binding
11,B11,no binding
12,B12,binds
13,B13,binds
14,B14,no binding
15,B15,no binding
16,B16,no binding
17,B17,no binding
18,B18,binds
19,B19,no binding
20,B20,binds
21,B21,binds
22,B22,no binding

# Biological target: Pax6 DNA-binding domain (BD-Pax6) (Mus musculus (B6), UniProt P63015 190-289)
# Assay: as above
# Conditions: protein: recombinant; tags: GST (N-terminal, pGEX-6P-1); label: 32P-dCTP fill-in of the 5' (dG)5 overhangs of both strands (Methods; control probes are given with GGG)
# In short: as §1
# Chain of Pax6 DNA-binding domain (BD-Pax6) (P63015 190-289): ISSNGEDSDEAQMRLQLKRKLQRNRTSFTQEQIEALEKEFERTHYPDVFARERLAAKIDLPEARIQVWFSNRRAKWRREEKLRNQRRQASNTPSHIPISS
row,Binder,binding result
1,B1,no binding
2,B2,binds
3,B3,no binding
4,B4,no binding
5,B5,no binding
6,B6,no binding
7,B7,binds
8,B8,no binding
9,B9,no binding
10,B10,no binding
11,B11,no binding
12,B12,no binding
13,B13,binds
14,B14,no binding
15,B15,no binding
16,B16,no binding
17,B17,binds
18,B18,no binding
19,B19,no binding
20,B20,no binding
21,B21,no binding
22,B22,no binding

# Biological target: T2, Oct6 DNA-binding domain (BD-Oct6)
# Assay: as above
# Conditions: protein: recombinant; tags: GST (N-terminal, pGEX-6P-1); label: 32P-dCTP fill-in of the 5' (dG)5 overhangs of both strands (Methods; control probes are given with GGG)
# In short: as §1
row,Binder,binding result
1,B1,binds
2,B2,binds
3,B3,binds
4,B4,binds
5,B5,binds
6,B6,binds
7,B7,binds
8,B8,no binding
9,B9,no binding
10,B10,no binding
11,B11,no binding
12,B12,no binding
13,B13,binds
14,B14,no binding
15,B15,no binding
16,B16,no binding
17,B17,no binding
18,B18,no binding
19,B19,no binding
20,B20,binds
21,B21,binds
22,B22,no binding
